Data taken from US20230331825A1.
Blank lines part the entries; values can stand above or below the substance they belong to.

Tests used:
Human IgG (human) [1] = assay: protein/peptide microarray, Anti-Hu IgG control alone, replicate 1, spot Human IgG
Human IgG (human) [2] = assay: protein/peptide microarray, sample [..]00761 10 ug/mL, replicate 1, positive-control spot Human IgG (signal of the anti-human IgG detection)
S1 (SARS-CoV-2) [3] = biological target: S1 (SARS-CoV-2) (UniProt P0DTC2); assay: protein/peptide microarray, Anti-Hu IgG control alone, replicate 1, spot S1_0.17
S1 (SARS-CoV-2) [4] = biological target: S1 (SARS-CoV-2) (UniProt P0DTC2); assay: protein/peptide microarray, Anti-Hu IgG control alone, replicate 2, spot S1_0.17
ACE2_Fc [5] = biological target: ACE2_Fc (UniProt Q9BYF1); assay: protein/peptide microarray, sample [..]00761 10 ug/mL, replicate 2, positive-control spot ACE2_Fc_0.17 (signal of the anti-human IgG detection)
S1 (SARS-CoV-2) [6] = biological target: S1 (SARS-CoV-2) (UniProt P0DTC2); assay: protein/peptide microarray, Anti-Hu IgG control alone, replicate 2, spot S1_0.5
Human IgG (human) [7] = assay: protein/peptide microarray, Anti-Hu IgG control alone, replicate 2, spot Human IgG
ACE2_Fc [8] = biological target: ACE2_Fc (UniProt Q9BYF1); assay: protein/peptide microarray, Anti-Hu IgG control alone, replicate 1, spot ACE2_Fc_0.5
ACE2_Fc [9] = biological target: ACE2_Fc (UniProt Q9BYF1); assay: protein/peptide microarray, sample [..]00761 10 ug/mL, replicate 1, positive-control spot ACE2_Fc_0.5 (signal of the anti-human IgG detection)
Human IgG (human) [10] = assay: protein/peptide microarray, sample [..]00761 10 ug/mL, replicate 2, positive-control spot Human IgG (signal of the anti-human IgG detection)
ACE2_Fc [11] = biological target: ACE2_Fc (UniProt Q9BYF1); assay: protein/peptide microarray, sample [..]00761 10 ug/mL, replicate 1, positive-control spot ACE2_Fc_0.17 (signal of the anti-human IgG detection)
S1 (SARS-CoV-2) [12] = biological target: S1 (SARS-CoV-2) (UniProt P0DTC2); assay: protein/peptide microarray, Anti-Hu IgG control alone, replicate 1, spot S1_0.5
ACE2_Fc [13] = biological target: ACE2_Fc (UniProt Q9BYF1); assay: protein/peptide microarray, Anti-Hu IgG control alone, replicate 2, spot ACE2_Fc_0.17
ACE2_Fc [14] = biological target: ACE2_Fc (UniProt Q9BYF1); assay: protein/peptide microarray, sample [..]00761 10 ug/mL, replicate 2, positive-control spot ACE2_Fc_0.5 (signal of the anti-human IgG detection)
ACE2_Fc [15] = biological target: ACE2_Fc (UniProt Q9BYF1); assay: protein/peptide microarray, Anti-Hu IgG control alone, replicate 1, spot ACE2_Fc_0.17
ACE2_Fc [16] = biological target: ACE2_Fc (UniProt Q9BYF1); assay: protein/peptide microarray, Anti-Hu IgG control alone, replicate 2, spot ACE2_Fc_0.5
[17] = biological target: SARS-CoV-2 spike (S) protein (SARS-CoV-2) (UniProt P0DTC2); assay: cell-based or functional assay
[18] = biological target: ACE2_Fc (microarray spots) (UniProt Q9BYF1); assay: CDI SARS-CoV-2 protein microarray, sample [..]00347 1 ug/mL, positive-control spot ACE2_Fc_0.5 read by the anti-human IgG secondary, replicate 2
[19] = biological target: Human IgG (microarray spot); assay: CDI SARS-CoV-2 protein microarray, sample [..]00316 1 ug/mL, positive-control spot Human IgG read by the anti-human IgG secondary, replicate 2
[20] = biological target: Human IgG (microarray spot); assay: CDI SARS-CoV-2 protein microarray, sample [..]00316 1 ug/mL, positive-control spot Human IgG read by the anti-human IgG secondary, replicate 1
[21] = biological target: ACE2_Fc (microarray spots) (UniProt Q9BYF1); assay: CDI SARS-CoV-2 protein microarray, sample [..]00347 1 ug/mL, positive-control spot ACE2_Fc_0.17 read by the anti-human IgG secondary, replicate 1
[22] = biological target: Human IgG (microarray spot); assay: CDI SARS-CoV-2 protein microarray, sample [..]00347 1 ug/mL, positive-control spot Human IgG read by the anti-human IgG secondary, replicate 1
[23] = biological target: ACE2_Fc (microarray spots) (UniProt Q9BYF1); assay: CDI SARS-CoV-2 protein microarray, sample [..]00316 1 ug/mL, positive-control spot ACE2_Fc_0.5 read by the anti-human IgG secondary, replicate 2
[24] = biological target: ACE2_Fc (microarray spots) (UniProt Q9BYF1); assay: CDI SARS-CoV-2 protein microarray, sample [..]00347 1 ug/mL, positive-control spot ACE2_Fc_0.5 read by the anti-human IgG secondary, replicate 1
[25] = biological target: ACE2_Fc (microarray spots) (UniProt Q9BYF1); assay: CDI SARS-CoV-2 protein microarray, sample [..]00316 1 ug/mL, positive-control spot ACE2_Fc_0.17 read by the anti-human IgG secondary, replicate 2
[26] = biological target: ACE2_Fc (microarray spots) (UniProt Q9BYF1); assay: CDI SARS-CoV-2 protein microarray, sample [..]00316 1 ug/mL, positive-control spot ACE2_Fc_0.17 read by the anti-human IgG secondary, replicate 1
[27] = biological target: ACE2_Fc (microarray spots) (UniProt Q9BYF1); assay: CDI SARS-CoV-2 protein microarray, sample [..]00347 1 ug/mL, positive-control spot ACE2_Fc_0.17 read by the anti-human IgG secondary, replicate 2
[28] = biological target: Human IgG (microarray spot); assay: CDI SARS-CoV-2 protein microarray, sample [..]00347 1 ug/mL, positive-control spot Human IgG read by the anti-human IgG secondary, replicate 2
[29] = biological target: ACE2_Fc (microarray spots) (UniProt Q9BYF1); assay: CDI SARS-CoV-2 protein microarray, sample [..]00316 1 ug/mL, positive-control spot ACE2_Fc_0.5 read by the anti-human IgG secondary, replicate 1

F635 (Human IgG (human) [1]): 65500
Z-Score (Human IgG (human) [1]): 9.27
F635 (Human IgG (human) [2]): 65500
Z-Score (Human IgG (human) [2]): 7.28
F635 (S1 (SARS-CoV-2) [3]): 1410
Z-Score (S1 (SARS-CoV-2) [3]): 0.08
F635 (S1 (SARS-CoV-2) [4]): 753
Z-Score (S1 (SARS-CoV-2) [4]): -0.01
F635 (ACE2_Fc [5]): 65500
Z-Score (ACE2_Fc [5]): 7.67
F635 (S1 (SARS-CoV-2) [6]): 1230
Z-Score (S1 (SARS-CoV-2) [6]): 0.06
F635 (Human IgG (human) [7]): 65500
Z-Score (Human IgG (human) [7]): 9.27
F635 (ACE2_Fc [8]): 65500
Z-Score (ACE2_Fc [8]): 9.27
F635 (ACE2_Fc [9]): 65500
Z-Score (ACE2_Fc [9]): 7.28
F635 (Human IgG (human) [10]): 65500
Z-Score (Human IgG (human) [10]): 7.67
F635 (ACE2_Fc [11]): 65500
Z-Score (ACE2_Fc [11]): 7.28
F635 (S1 (SARS-CoV-2) [12]): 1560
Z-Score (S1 (SARS-CoV-2) [12]): 0.1
F635 (ACE2_Fc [13]): 65500
Z-Score (ACE2_Fc [13]): 9.27
F635 (ACE2_Fc [14]): 65500
Z-Score (ACE2_Fc [14]): 7.67
F635 (ACE2_Fc [15]): 65500
Z-Score (ACE2_Fc [15]): 9.27
F635 (ACE2_Fc [16]): 65500
Z-Score (ACE2_Fc [16]): 9.27
Substance: Anti-Hu IgG (Control) (antibody)

Substance: REGN10933 (antibody)
IC50, SARS-CoV-2 pseudovirus neutralization assay [17]: 0.0841 µg/mL

F532 [18]: 160
F635 [18]: 65500
Z-Score [18]: 8.89
F532 [19]: 164
F635 [19]: 65500
Z-Score [19]: 7.97
F532 [20]: 212
F635 [20]: 65500
Z-Score [20]: 7.52
F532 [21]: 192
F635 [21]: 65500
Z-Score [21]: 8.93
F532 [22]: 197
F635 [22]: 65500
Z-Score [22]: 8.93
F532 [23]: 167
F635 [23]: 65500
Z-Score [23]: 7.96
F532 [24]: 219
F635 [24]: 65500
Z-Score [24]: 8.93
F532 [25]: 151
F635 [25]: 60200
Z-Score [25]: 7.32
F532 [26]: 198
F635 [26]: 65500
Z-Score [26]: 7.52
F532 [27]: 138
F635 [27]: 65500
Z-Score [27]: 8.89
F532 [28]: 179
F635 [28]: 65500
Z-Score [28]: 8.89
F532 [29]: 234
F635 [29]: 65500
Z-Score [29]: 7.52
Substance: secondary antibody (Anti-Human IgG)
